Changes are numbered by the printed parent chain. Numbers in names are those of the source. One block for each binder: values may come before it.
Key:
hTF (Thromborel S) [1] = molecular target: T1, hTF (Thromborel S) (human, UniProt P13726 33-295); assay: cell-based or functional assay
hTF (Thromborel S) [2] = molecular target: T1, hTF (Thromborel S); assay: cell-based or functional assay; remark: listed apart in the source
shTF [3] = molecular target: T2, shTF (human, UniProt P13726 33-251, limits assumed); assay: TF binding activity after 4 weeks at 40 C, pH 7.5, against own initial value (FIG. 13B)
T2 construct: also called human tissue factor

shTF [4] = molecular target: T2, shTF; assay: competitive ELISA on coated shTF against biotinylated anti-human TF antibody; anion exchange main peak
Description: (§1) shTF was adjusted to 20 nM with coating buffer (hereafter, indicated as CB), dispensed at 100 μl/well into a 96-well plate and incubated at 4° C. overnight. Each well was washed three times with rinse buffer (hereafter, indicated as RB); 200 μl dilution buffer (hereafter, indicated as DB) was added to each well. The plate was left standing at room temperature for 2 hours for blocking. […] The plate was washed three times with RB. After 100 μl ALP-streptavidin diluted 5,000-fold with DB was dispensed to each well, the plate was left standing for 1 hour at room temperature. Each well was washed 5 times with RB, and SIGMA104 adjusted with substrate buffer (hereafter, indicated as SB) to 1 mg/ml was dispensed to each well. Plates were left standing for 30 min at room temperature for color development and measured with a microplate reader at a wavelength of 405 nm and a control wavelength of 655 nm.
This was taken as the binding activity.

shTF [5] = molecular target: T2, shTF; assay: competitive ELISA on coated shTF against biotinylated anti-human TF antibody; anion exchange subpeak
Description: as §1
This was taken as the binding activity.

T1 sequence (P13726 33-295 limits assumed): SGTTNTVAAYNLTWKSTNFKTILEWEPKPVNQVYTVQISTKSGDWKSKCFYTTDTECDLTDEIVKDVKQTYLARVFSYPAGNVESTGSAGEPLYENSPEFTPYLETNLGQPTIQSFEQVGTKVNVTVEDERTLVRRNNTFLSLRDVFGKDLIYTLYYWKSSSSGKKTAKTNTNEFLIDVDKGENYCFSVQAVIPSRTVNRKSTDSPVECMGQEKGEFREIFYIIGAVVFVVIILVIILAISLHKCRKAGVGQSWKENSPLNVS
T2 sequence (P13726 33-251 limits assumed): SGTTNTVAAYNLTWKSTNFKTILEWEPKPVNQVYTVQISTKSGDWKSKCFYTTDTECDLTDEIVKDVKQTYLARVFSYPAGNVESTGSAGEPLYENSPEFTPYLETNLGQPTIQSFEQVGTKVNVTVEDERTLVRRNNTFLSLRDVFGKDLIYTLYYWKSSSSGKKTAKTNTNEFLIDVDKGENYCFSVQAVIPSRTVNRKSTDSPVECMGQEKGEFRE

TF neutralizing activity (Equation 2, relative to standard antibody) (hTF (Thromborel S) [2]): 66% | TF neutralizing activity after accelerated testing at 40 C for 4 weeks, relative to the initial value (hTF (Thromborel S) [2]): ~40% | TF binding activity after 4 weeks of accelerated testing (% of its activity before) (shTF [3]): ~60% | Binding Activity, Peak 1 (% of standard antibody) (shTF [4]): 100% | Binding Activity, Peak 2 (% of standard antibody) (shTF [5]): 70.6% | Calculated concentration (ng/ml) at 250 ng/ml added (hTF (Thromborel S) [1]): 248 ng/mL | Neutralizing activity ratio (%) (hTF (Thromborel S) [1]): 99.1%
B2: anti-human TF antibody described in WO 99/51743 (humanized heavy chain version i, humanized light chain version b2) (antibody, human IgG4 S228P, kappa, V domains shown)
VH: QVQLLESGAVLARPGTSVKISCKASGFNIKDYYMHWVKQRPGQGLEWIGGNDPANGHSMYDPKFQGRVTITADTSTSTVFMELSSLRSEDTAVYYCARDSGYAMDYWGQGTLVTVSS
VL: DIQMTQSPSSLSASVGDRVTITCKASQDIKSFLSWYQQKPEKAPKSLIYYATSLADGVPSRFSGSGSGTDYTLTISSLQPEDFATYYCLQHGESPYTFGGGTKVEIKR
notes: Expressed as human IgG from vector pN5KG4P-AHi-ALb2; also called original anti-human TF antibody; Original

Calculated concentration (ng/ml) at 250 ng/ml added (hTF (Thromborel S) [1]): 49.8 ng/mL
B3: anti-human TF antibody N55D mutant (antibody, human IgG4 S228P, kappa, V domains shown)
VH: B2 VH with N55D
VL: B2 VL

Calculated concentration (ng/ml) at 250 ng/ml added (hTF (Thromborel S) [1]): 31.3 ng/mL
B4: anti-human TF antibody N51D/N55D double mutant (antibody, human IgG4 S228P, kappa, V domains shown)
VH: B2 VH with N51D, N55D
VL: B2 VL

The remaining lines, values behind:

B1: anti-human TF antibody N28D mutant (antibody, human IgG4 S228P, kappa, V domains shown)
VH: B2 VH with N28D
VL: B2 VL
Calculated concentration (ng/ml) at 250 ng/ml added (hTF (Thromborel S) [1]): 253 ng/mL

B5: anti-human TF antibody N51D mutant (antibody, human IgG4 S228P, kappa, V domains shown)
VH: B2 VH with N51D
VL: B2 VL
Calculated concentration (ng/ml) at 250 ng/ml added (hTF (Thromborel S) [1]): 164 ng/mL

Source: US20060287508A1 (Chugai, published 2006)
